# Ends that are not written are not given here.
# Columns and labels:
# Conditions in all cases: both partners purified
# [1] = biological target: GABARAP-L1 (recombinant, BLI) (human, UniProt Q9H0R8 1-117); test: BLI; biotinylated LIR peptide (50 μg/ml) immobilised on streptavidin biosensor, ATG8 in solution; Octet Red 96; 25 mM Tris pH 7.5, 150 mM NaCl, 0.5 mM TCEP, 0.1% Tween-20, 1 mg/ml BSA; 25 °C; Kd from response against concentration
# [2] = biological target: T1, GABARAP (recombinant, BLI) (human, UniProt O95166 1-117); test: as above
# T1 construct: full-length human GABARAP; also called WT GABARAP; source: recombinant; bacterial expression plasmid pAL
# [3] = biological target: T2, GABARAP-L2 (recombinant, BLI) (human, UniProt P60520 1-117); test: as above
# T2 construct: human GABARAP-L2; source: recombinant; bacterial expression plasmid pAL
# LC3B (recombinant, BLI) = LC3B (recombinant, BLI) (human, UniProt Q9GZQ8 1-120); test: as above
# GABARAP = biological target: T3, GABARAP (human, UniProt O95166 1-117); test: BLI; biotinylated LIR peptide immobilised on streptavidin biosensors (Octet Red 96), ATG8 protein in solution; 25 mM Tris pH 7.5, 150 mM NaCl, 0.5 mM TCEP, 0.1% Tween-20, 1 mg/ml BSA, 25 °C; Kd from response against concentration, Y=Rmax*X/(Kd+X)
# T3 construct: GABARAP, human, full length; The plasmid has a 3C protease site after GST; also called GABARAP WT; source: recombinant, expressed in bacteria from the pAL plasmid (modified pGEX-6P2)
# LC3A = biological target: T4, LC3A (human, UniProt Q9H492 1-121); test: as above
# T4 construct: LC3A, human, full length; The plasmid has a 3C protease site after GST; source: recombinant, expressed in bacteria from the pAL plasmid (modified pGEX-6P2)
# LC3C = biological target: T5, LC3C (human, UniProt Q9BXW4 1-126); test: as above
# T5 construct: LC3C, human, full length; The plasmid has a 3C protease site after GST; source: recombinant, expressed in bacteria from the pAL plasmid (modified pGEX-6P2)
# Sequence of GABARAP-L1 (recombinant, BLI) (Q9H0R8 whole entry, looked up): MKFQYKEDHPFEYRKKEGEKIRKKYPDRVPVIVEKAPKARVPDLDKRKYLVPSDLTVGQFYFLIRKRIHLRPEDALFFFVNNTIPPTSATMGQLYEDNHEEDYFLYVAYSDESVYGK
# T2 sequence (P60520 whole entry): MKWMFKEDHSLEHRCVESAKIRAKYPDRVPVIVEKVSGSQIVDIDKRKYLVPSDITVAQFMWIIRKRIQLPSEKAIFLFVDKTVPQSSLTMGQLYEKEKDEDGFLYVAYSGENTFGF
binder,measurement,setting,value
"GGSSGNTHDDFVMIDFKPAFSKDD (also: biotin, position not given here) [ATG13 LIR peptide (biotinylated, BLI)]",Kd,[1],0.53 µM
same,Kd,[2],0.59 µM
"PDSIDAHTFDFETIPHPNIEQTIH (also: biotin, position not given here) [FIP200 LIR peptide (biotinylated, BLI)]",Kd,[1],7 µM
same,Kd,[2],5.6 µM
"SDNCSGGDDDWTHLSSKEVDPSTG (also: biotin, position not given here) [p62 LIR peptide (biotinylated, BLI)]",Kd,[3],5.2 µM
same,Kd,"LC3B (recombinant, BLI)",4.5 µM
"DTDDFVMVPAQFPGDLV (peptide, UniProt O75385 353-369, looked up, not fully specified (N-terminus); also: biotinylated, position not given here, source: synthetic peptide) [ULK1 (aa 353-369) LIR peptide]",Kd,GABARAP,0.116 µM
same,Kd,LC3A,7.71 µM
same,Kd,LC3C,1.9 µM

# Reference: publication PMC6499816 (Nature Communications, 2019)
